Here are results for four molecules from article PMC3902904, “Intrinsically disordered regions of nucleophosmin/B23 regulate its RNA binding activity through their inter- and intra-molecular association” (Nucleic Acids Research, 2013).

The subject of one data set is GST-B23.1-CR (human). Put plainly: GST pull-down. The conditions noted are these: total RNA, 300 mM NaCl wash; Sucrose gradient 15-40%, 5 µg protein with 10 µg 293T total RNA (buffer not given in the material); GST pull-down 2 µg protein, 5 µg total RNA, wash 300 mM ….
For another data set, the system named is GST-B23.1-CRD (human). Put plainly: GST pull-down. To be noted: total RNA, 300 mM NaCl wash; Sucrose gradient 15-40%, 5 µg protein with 10 µg 293T total RNA (buffer not given in the material); GST pull-down 2 µg protein, 5 µg total RNA, wash 300 mM ….
The target of the next data set is His-B23.1-ΔN (human) (UniProt P06748). In words: cross-linking; 0.1% glutaraldehyde, 10 min, room temperature, 20 mM Hepes-NaOH pH 7.9, 50 mM NaCl; SDS-PAGE, CBB staining; increased protein concentration (3.0 and 4.5 µM; lanes 5 and 6 at 4.5 µM).
For the next data set, the target named is T1, GST-B23.1-CR1 (human, UniProt P06748 189-259).
T1 construct: nucleophosmin NPM1/B23, variant B23.1, human, amino acids 189-259 (basic IDR); limits are printed for B23.1-CR1 in the CD experiment; also called bIDR; basic IDR; source: E. coli BL21 (DE3), purified (Glutathione sepharose, MNase-treated)
In words: native gel or EMSA; GST-B23.1-A (0.5 µg) mixed with increasing amounts (0.5, 1.0, 2.0, 4.0 µg) of the other GST-tagged fragment in 10 µl buffer H, 30 min, room temperature; 6% native PAGE in 0.5x TBE, CBB staining. To be noted: both partners purified.

Another data set deals with T2, GST-B23.1-CRA (human, UniProt P06748 189-294, threonine 199 replaced with alanine (A) | threonine 219 replaced with alanine …).
T2 construct: nucleophosmin NPM1/B23, variant B23.1, human, B23.1-CR with threonines 199, 219, 234 and 237 replaced with alanine; source: E. coli BL21 (DE3), purified (Glutathione sepharose, MNase-treated)
The description is as above. To be noted: both partners purified.

For another data set, the target named is T3, GST-B23.1-CRD (human, UniProt P06748 189-294, threonine 199 replaced with aspartic acid (D) | threonine 219 replaced with …).
T3 construct: nucleophosmin NPM1/B23, variant B23.1, human, B23.1-CR with threonines 199, 219, 234 and 237 replaced with aspartic acid; also called phosphomimetic mutant; source: E. coli BL21 (DE3), purified (Glutathione sepharose, MNase-treated)
The description is as above. To be noted: both partners purified.

The next data set deals with T4, GST-B23.1-CR (human, UniProt P06748 189-294).
T4 construct: nucleophosmin NPM1/B23, variant B23.1, human, basic IDR and CTD; amplified with the same forward primer as CR1 (which begins at 189, KAPVKK) and the T7 terminator primer; also called unphosphorylated GST-B23.1-CR; source: E. coli BL21 (DE3), purified (Glutathione sepharose, MNase-treated)
Described as above. To be noted: both partners purified.

A word on the stoichiometry N: it is a count of units in the complex or per binding partner.

T2 sequence (P06748 other isoform, or with tags, fused parts or gaps with the stated changes): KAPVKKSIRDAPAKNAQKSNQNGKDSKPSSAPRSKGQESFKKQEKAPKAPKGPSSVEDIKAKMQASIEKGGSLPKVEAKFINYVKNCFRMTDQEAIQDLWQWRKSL
T4 sequence (P06748 189-294): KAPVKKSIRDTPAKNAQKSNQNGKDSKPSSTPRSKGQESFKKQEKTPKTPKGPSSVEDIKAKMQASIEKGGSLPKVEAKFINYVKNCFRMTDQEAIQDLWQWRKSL
T1 sequence (P06748 189-259): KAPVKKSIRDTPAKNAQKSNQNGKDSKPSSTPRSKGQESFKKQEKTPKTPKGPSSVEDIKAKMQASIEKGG
T3 sequence (P06748 other isoform, or with tags, fused parts or gaps with the stated changes): as the sequence (P06748 189-294) above, with T11D, T31D, T46D, T49D counted along it

18S rRNA yielded a binding signal (% (reference)) in the data set on GST-B23.1-CR (human) of 100. The binding signal (% of GST-B23.1-CR) with GST-B23.1-CRD (human) came out at 25.
28S rRNA yielded a binding signal (% (reference)) with GST-B23.1-CR (human) of 100. In the data set with GST-B23.1-CRD (human), the binding signal (% of GST-B23.1-CR) stood at 35.
“His-B23.1-ΔN (from UniProt P06748 120-294) (domain or fragment)” displayed a stoichiometry N with His-B23.1-ΔN (human) of 2.

B1: GST-B23.1-A (domain or fragment, human, UniProt P06748 120-188, looked up)
chain: EEDAESEDEEEEDVKLLSISGKRSAPGGGSKVPQKKVKLAADEDDDDDDEEDDDEDDDDDDFDDEEAEE
notes: nucleophosmin NPM1/B23, variant B23.1 (longest variant), human, amino acids 120-188 (acidic IDR); The construction of pGEX2T-B23.1-A is not described in the methods; also called GST-tagged B23-A; aIDR; source: E. coli BL21 (DE3), purified (Glutathione sepharose, MNase-treated)
As for B1, the binding result in the data set with GST-B23.1-CR1, with GST-B23.1-CRA, in the data set with GST-B23.1-CRD and with GST-B23.1-CR was “binds” throughout.
